In patent US9512459B2 (priority 2011, dated 2016):

Substrate: OC[C@H]1OC(O)[C@H](O)[C@@H](O)[C@@H]1O
Experiment: cells, lysate or membranes named
Conditions: other: 60 ml culture, crude enzyme, glucose 1-40 mM, pH 6.5, DCIP/PMS, 20.0 °C

B1: Aspergillus niger glucose dehydrogenase (FAD-GDH) Ang-n1, wild type, SEQ ID NO: 2 (20 N-terminal residues deleted, Ala21 substituted by Met) (Aspergillus niger … (protein)
chain: MDSPAHYDFVIVGGGTSGLVVANRLSELSDVTVAVIEAGESALNNFNVSNVMGYSTAFGTEVDWAYQTENQTYAGGLQQTIRAGKALGGTSTINGMSYTRAEDVQIDNWEVLGNDGWNWKNLFQYYKKSEGFQVPTKDQIAHGASYNASYHGLNGPLKVGWPNSMTNSSVFPVLEQTFEKLGVQYNPDSEGGKMVGFTVHPDTLDREMNVREDAARAYYWPYEARSNLKIISNTRANKVIWANTTQGEAVAVGIEVTNAYGTETIYADKEVILSAGALRSPAILELSGIGNPDVLNKHNIPVKVNITTVGENLQDQTNNALSWEGVDTLTGLATFSVLPSVNQLYGDNVTALASYVKSQLASYAKTVASASNGAVKEANLVEAFERQYDLIFNSQVPYTEVVFAPSGNSFAVEYWPLLPFSRGSVHIQSANASDYPAINPNYFMFDQDAEAQVTVAQYIRKALGTAPLNSLVGEEVSPGLDVLPASASSATWTKWVKENYRTNYHPVGTTSMLPREKGGVVSPELKVYGTKNVRVVDASVLPFQLCGHLTSTLYAVAERASDLIKESY
- Km: 3.6 mM
